Reference: patent US20210061914A1 (published 2021)
Residue numbers refer to the chain shown, from its start. Values belong to the binder of their own block, whether it stands above or below them.

What was measured:
[1] = biological target: HLA-A*01:01_… (HLA-PEPTIDE target G10), soluble (human, enzymatically biotinylated (BirA)); assay: scFv PPE ELISA
[2] = biological target: HLA-A*02:01_… (HLA-PEPTIDE target G8), soluble (human, enzymatically biotinylated (BirA) for screening and BLI); assay: scFv PPE ELISA

fold selective binding, target pHLA vs minipool of negative control pHLAs [1]: ≥ 3 fold
B1: scFv R3G10-P4E07 (scFv, V domains shown)
VH: QVQLVQSGAEVKKPGSSVKVSCKASGYTFTGYYMHWVRQAPGQGLEWMGRISPSDGSTTYAPKFQGRVTITADESTSTAYMELSSLRSEDTAVYYCARDMGDAFDIWGQGTTVTVSS
VL: not shown
notes: scFv

fold selective binding, target pHLA vs minipool of negative control pHLAs [1]: ≥ 3 fold
B2: scFv R3G10-P5A08 (scFv, V domains shown)
VH: QVQLVQSGAEVKKPGSSVKVSCKASGGTFNNFAISWVRQAPGQGLEWMGGIIPIFDATNYAQKFQGRVTFTADESTSTAYMELSSLRSEDTAVYYCARGEYSSGFFFVGWFDLWGRGTQVTVSS
VL: not shown
notes: scFv

fold selective binding, target pHLA vs minipool of negative control pHLAs [2]: ≥ 3 fold
B3: scFv G8-P1A06 (scFv, V domains shown)
VH: QVQLVQSGAEVKKPGASVKVSCKASGYTFTNYYMHWVRQAPGQGLEWMGWMNPIGGGTGYAQKFQGRVTMTRDTSTSTVYMELSSLRSEDTAVYYCARVYDFWSVLSGFDIWGQGTLVTVSS
VL: DIQMTQSPSSLSASVGDRVTITCRASQAISNSLAWYQQKPGKAPKLLIYAASTLQSGVPSRFSGSGSGTDFTLTISSLQPEDFATYYCGQSYSTPPTFGQGTKLEIK
notes: scFv

fold selective binding, target pHLA vs minipool of negative control pHLAs [1]: ≥ 3 fold
B4: scFv R3G10-P1F06 (scFv, V domains shown)
VH: QVQLVQSGAEVKKPGASVKVSCKASGYTFIGYYMHWVRQAPGQGLEWMGMIGPSDGSTSYAQKFQGRVTMTRDTSTSTVYMELSSLRSEDTAVYYCARDSSGLDPWGQGTLVTVSS
VL: B3 VL with A28S, S32Y, A34N, A50K, T53S, Q55E, G89Q, S93I, T94I, P96Y
notes: scFv

fold selective binding, target pHLA vs minipool of negative control pHLAs [2]: ≥ 3 fold
B5: scFv G8-P1H08 (scFv, V domains shown)
VH: QVQLVQSGAEVKKPGASVKVSCKASGYTFGNYFMHWVRQAPGQGLEWMGMVNPSGGSETFAQKFQGRVTMTRDTSTSTVYMELSSLRSEDTAVYYCAASTWIQPFDYWGQGTLVTVSS
VL: DIQMTQSPSSLSASVGDRVTITCRASQGINSYLAWYQQKPGKAPKLLIYDASNLETGVPSRFSGSGSGTDFTLTISSLQPEDFATYYCQQHNSYPPTFGQGTKLEIK
notes: scFv

fold selective binding, target pHLA vs minipool of negative control pHLAs [1]: ≥ 3 fold
B6: scFv R3G10-P2G11 (scFv, V domains shown)
VH: QVQLVQSGAEVKKPGASVKVSCKASGGTFSTHDINWVRQAPGQGLEWMGVINPSGGSAIYAQKFQGRVTMTRDTSTSTVYMELSSLRSEDTAVYYCARDRGYSYGYFDYWGQGTLVTVSS
VL: B5 VL with G28D, N30S, S31R, H91A, Y94F, P96R, L104V
notes: scFv

fold selective binding, target pHLA vs minipool of negative control pHLAs [2]: ≥ 3 fold
B7: scFv G8-P1A04 (scFv, V domains shown)
VH: QVQLVQSGAEVKKPGASVKVSCKASGYPFIGQYLHWVRQAPGQGLEWMGIINPSGDSATYAQKFQGRVTMTRDTSTSTVYMELSSLRSEDTAVYYCARDLSYYYGMDVWGQGTTVTVSS
VL: DIQMTQSPSSLSASVGDRVTITCWASQGISSYLAWYQQKPGKAPKLLIYAASSLQSGVPSRFSGSGSGTDFTLTISSLQPEDFATYYCQQSYNTPWTFGPGTKVDIK
notes: scFv

fold selective binding, target pHLA vs minipool of negative control pHLAs [2]: ≥ 3 fold
B8: scFv G8-P1C11 (scFv, V domains shown)
VH: QVQLVQSGAEVKKPGASVKVSCKASGGTLSSYPINWVRQAPGQGLEWMGWISTYSGHADYAQKLQGRVTMTRDTSTSTVYMELSSLRSEDTAVYYCARSYDYGDYLNFDYWGQGTLVTVSS
VL: B7 VL with W24Q, G28D, S31N, A34N, N93S, T94I, W96P, P100G
notes: scFv

fold selective binding, target pHLA vs minipool of negative control pHLAs [1]: ≥ 3 fold
B9: scFv R3G10-P1H08 (scFv, V domains shown)
VH: QVQLVQSGAEVKKPGASVKVSCKASGVTFSTSAISWVRQAPGQGLEWMGWISPYNGNTDYAQMLQGRVTMTRDTSTSTVYMELSSLRSEDTAVYYCARDAHQYYDFWSGYYSGTYYYGMDVWGQGTTVTVSS
VL: B3 VL with A28G, S32Y, A50S, T53N, G89Q, S91A, T94F, P96W, L104V
notes: scFv

fold selective binding, target pHLA vs minipool of negative control pHLAs [2]: ≥ 3 fold
B10: scFv G8-P1D02 (scFv, V domains shown)
VH: EVQLLESGGGLVQPGGSLRLSCAASGFTFSSYWMSWVRQAPGKGLEWVSSISGRGDNTYYADSVKGRFTISRDNSKNTLYLQMNSLRAEDTAVYYCARASGSGYYYYYGMDVWGQGTTVTVSS
VL: B7 VL with W24Q, G28D, S31N, A34N, N93S, T94A, W96Y, P100G, D105E
notes: scFv

fold selective binding, target pHLA vs minipool of negative control pHLAs [1]: ≥ 3 fold
B11: scFv R3G10-P4C05 (scFv, V domains shown)
VH: B4 VH with I30T, M50I, S59T, D99A, S100E, S101N, L103M, P105V, L111T
VL: B7 VL with W24R, G28R, A34N, A50S, S53T, N93S, W96F
notes: scFv

fold selective binding, target pHLA vs minipool of negative control pHLAs [1]: ≥ 3 fold
B12: scFv R3G10-P4D10 (scFv, V domains shown)
VH: B4 VH with I30T, M34L, S100G, S101D, G102A, L103F, P105I, L111M
VL: B5 VL with N30S, Y32W, H91S, N92Y, Y94T, P96L, Q100G, L104V
notes: scFv

fold selective binding, target pHLA vs minipool of negative control pHLAs [1]: ≥ 3 fold
B13: scFv R3G10-P1H01 (scFv, V domains shown)
VH: B4 VH with I30T, D99G, S100V, S101G, G102N, P105Y
VL: B3 VL with A28S, S32Y, A34N, T53S, G89H, S91T, P96L, L104V
notes: scFv

fold selective binding, target pHLA vs minipool of negative control pHLAs [1]: ≥ 3 fold
B14: scFv R3G10-P1A07 (scFv, V domains shown)
VH: EVQLLESGGGLVKPGGSLRLSCAASGFTFSSYWMSWVRQAPGKGLEWVSGISARSGRTYYADSVKGRFTISRDDSKNTLYLQMNSLKTEDTAVYYCARDQDTIFGVVITWFDPWGQGTLVTVSS
VL: B3 VL with A28G, S32Y, T53S, S56G, G89Q, S91Y, Y92F, S93T, P96Y
notes: scFv

fold selective binding, target pHLA vs minipool of negative control pHLAs [2]: ≥ 3 fold
B15: scFv G8-P1B03 (scFv, V domains shown)
VH: EVQLLESGGGLVQPGGSLRLSCAASGFTFSDYYMSWVRQAPGKGLEWVSGINWNGGSTGYADSVKGRFTISRDNSKNTLYLQMNSLRAEDTAVYYCARVEQGYDIYYYYYMDVWGKGTTVTVSS
VL: B7 VL with W24R, G28S, A34N, A50K, Q55E, N93S, T94A, W96Y
notes: scFv

fold selective binding, target pHLA vs minipool of negative control pHLAs [1]: ≥ 3 fold
B16: scFv R3G10-P4A02 (scFv, V domains shown)
VH: QVQLVQSGAEVKKPGASVKVSCKASGYTLSYYYMHWVRQAPGQGLEWMGMIGPSDGSTSYAQRFQGRVTMTRDTSTGTVYMELSSLRSEDTAVYYCARDTGDHFDYWGQGTLVTVSS
VL: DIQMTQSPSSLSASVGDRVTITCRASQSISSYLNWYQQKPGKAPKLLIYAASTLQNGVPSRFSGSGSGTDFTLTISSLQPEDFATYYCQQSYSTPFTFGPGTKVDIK
notes: scFv

fold selective binding, target pHLA vs minipool of negative control pHLAs [1]: ≥ 3 fold
B17: scFv R3G10-P4G06 (scFv, V domains shown)
VH: B16 VH
VL: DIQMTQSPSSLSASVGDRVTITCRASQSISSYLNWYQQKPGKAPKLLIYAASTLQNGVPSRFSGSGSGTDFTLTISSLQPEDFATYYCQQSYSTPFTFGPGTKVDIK
notes: scFv; printed VH and VL equal those of R3G10-P4A02

fold selective binding, target pHLA vs minipool of negative control pHLAs [1]: ≥ 3 fold
B18: scFv R3G10-P1E12 (scFv, V domains shown)
VH: B4 VH with T28I, I30T, D99E, S100D, S101D, G102S, L103M, P105V, Q108K, L111T
VL: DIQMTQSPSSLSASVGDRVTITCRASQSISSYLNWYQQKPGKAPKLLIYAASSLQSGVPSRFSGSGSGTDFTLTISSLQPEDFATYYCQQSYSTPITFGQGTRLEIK
notes: scFv

fold selective binding, target pHLA vs minipool of negative control pHLAs [1]: ≥ 3 fold
B19: scFv R3G10-P4E12 (scFv, V domains shown)
VH: B4 VH with I30T, K63R, D99E, S100E, S101D, L103M, P105V, L111T
VL: B5 VL with N30S, S31T, N53S, E55Q, T56S, H91Y, N92Y, P96W, K103R
notes: scFv

fold selective binding, target pHLA vs minipool of negative control pHLAs [1]: ≥ 3 fold
B20: scFv R3G10-P2C04 (scFv, V domains shown)
VH: QVQLVQSGAEVKKPGASVKVSCKASGGTFSNSIINWVRQAPGQGLEWMGWMNPNSGNTNYAQKFQGRVTMTRDTSTSTVYMELSSLRSEDTAVYYCAREQWPSYWYFDLWGRGTLVTVSS
VL: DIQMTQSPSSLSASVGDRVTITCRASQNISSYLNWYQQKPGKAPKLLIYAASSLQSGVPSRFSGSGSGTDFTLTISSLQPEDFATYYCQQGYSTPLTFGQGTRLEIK
notes: scFv

fold selective binding, target pHLA vs minipool of negative control pHLAs [1]: ≥ 3 fold
B21: scFv R3G10-P1B07 (scFv, V domains shown)
VH: QVQLVQSGAEVKKPGASVKVSCKASGYTFTSYYMHWVRQAPGQGLEWMGIIHPGGGTTSYAQKFQGRVTMTRDTSTSTVYMELSSLRSEDTAVYYCARDKVYGDGFDPWGQGTLVTVSS
VL: DIQMTQSPSSLSASVGDRVTITCRASQSISRWLAWYQQKPGKAPKLLIFDASRLQSGVPSRFSGSGSGTDFTLTISSLQPEDFATYYCQQAEAFPYTFGQGTKVEIK
notes: scFv

fold selective binding, target pHLA vs minipool of negative control pHLAs [1]: ≥ 3 fold
B22: scFv R3G10-P3E04 (scFv, V domains shown)
VH: QVQLVQSGAEVKKPGASVKVSCKASGNTFIGYYVHWVRQAPGQGLEWVGIINPNGGSISYAQKFQGRVTMTRDTSTSTVYMELSSLRSEDTAVYYCARGSGDPNYYYYYGLDVWGQGTTVTVSS
VL: DIQMTQSPSSLSASVGDRVTITCQASQDISNYLNWYQQKPGKAPKLLIYAASNLQSGVPSRFSGSGSGTDFTLTISSLQPEDFATYYCQQANSLPYTFGQGTKVEIK
notes: scFv

fold selective binding, target pHLA vs minipool of negative control pHLAs [2]: ≥ 3 fold
B23: scFv G8-P1A03 (scFv, V domains shown)
VH: QVQLVQSGAEVKKPGASVKVSCKASGGTFSRSAITWVRQAPGQGLEWMGWINPNSGATNYAQKFQGRVTMTRDTSTSTVYMELSSLRSEDTAVYYCARDDYGDYVAYFQHWGQGTLVTVSS
VL: DIQMTQSPSSLSASVGDRVTITCRASQSITSYLNWYQQKPGKAPKLLIYDASNLETGVPSRFSGSGSGTDFTLTISSLQPEDFATYYCQQNYNSVTFGQGTKLEIK
notes: scFv

fold selective binding, target pHLA vs minipool of negative control pHLAs [1]: ≥ 3 fold
B24: scFv R3G10-P4D04 (scFv, V domains shown)
VH: QVQLVQSGAEVKKPGASVKVSCKASGYTFTGYYVHWVRQAPGQGLEWMGIIAPSDGSTNYAQKFQGRVTMTRDTSTSTVYMELSSLRSEDTAVYYCARDPGGYMDVWGKGTTVTVSS
VL: B23 VL with T30S, N34A, N53K, N91S, N93G, S94V, V95P
notes: scFv

fold selective binding, target pHLA vs minipool of negative control pHLAs [1]: ≥ 3 fold
B25: scFv R3G10-P5C08 (scFv, V domains shown)
VH: QVQLVQSGAEVKKPGASVKVSCKASGYNFTGYYMHWVRQAPGQGLEWMGIIAPSDGSTNYAQKFQGRVTMTRDTSTSTVYMELSSLRSEDTAVYYCARETGDDAFDIWGQGTMVTVSS
VL: not shown
notes: scFv
